This is an account of results in publication PMC7036004.

Common to all, as to test: fluorescence polarization
For data set [1], the target named is T1, ΔRBRi-CTCF (3xFLAG-Halo-ΔRBRi-CTCF-6xHis) (mouse, UniProt Q61164 1-575+612-736, internal_change).
T1 sequence: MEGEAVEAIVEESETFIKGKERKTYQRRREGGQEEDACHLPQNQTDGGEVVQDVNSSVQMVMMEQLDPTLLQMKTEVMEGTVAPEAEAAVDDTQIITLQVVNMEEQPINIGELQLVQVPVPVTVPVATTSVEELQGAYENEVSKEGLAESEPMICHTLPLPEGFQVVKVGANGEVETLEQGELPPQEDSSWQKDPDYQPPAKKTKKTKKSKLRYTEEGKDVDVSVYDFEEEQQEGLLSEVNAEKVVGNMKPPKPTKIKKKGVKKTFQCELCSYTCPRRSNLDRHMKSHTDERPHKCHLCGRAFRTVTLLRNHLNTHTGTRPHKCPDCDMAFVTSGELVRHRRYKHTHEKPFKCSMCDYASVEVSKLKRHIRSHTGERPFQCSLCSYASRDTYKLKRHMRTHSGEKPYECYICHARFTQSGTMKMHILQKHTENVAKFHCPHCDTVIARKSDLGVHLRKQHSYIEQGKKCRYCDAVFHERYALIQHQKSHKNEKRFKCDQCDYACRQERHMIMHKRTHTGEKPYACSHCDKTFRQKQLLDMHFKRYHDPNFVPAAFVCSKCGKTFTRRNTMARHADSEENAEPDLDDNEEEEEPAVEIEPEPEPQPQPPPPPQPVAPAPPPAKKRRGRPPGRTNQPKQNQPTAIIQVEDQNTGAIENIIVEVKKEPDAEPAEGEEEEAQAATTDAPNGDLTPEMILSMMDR

The target of data set [2] is T2, wt-CTCF (3xFLAG-Halo-wt-CTCF-6xHis) (mouse, UniProt Q61164 1-736).
T2 sequence: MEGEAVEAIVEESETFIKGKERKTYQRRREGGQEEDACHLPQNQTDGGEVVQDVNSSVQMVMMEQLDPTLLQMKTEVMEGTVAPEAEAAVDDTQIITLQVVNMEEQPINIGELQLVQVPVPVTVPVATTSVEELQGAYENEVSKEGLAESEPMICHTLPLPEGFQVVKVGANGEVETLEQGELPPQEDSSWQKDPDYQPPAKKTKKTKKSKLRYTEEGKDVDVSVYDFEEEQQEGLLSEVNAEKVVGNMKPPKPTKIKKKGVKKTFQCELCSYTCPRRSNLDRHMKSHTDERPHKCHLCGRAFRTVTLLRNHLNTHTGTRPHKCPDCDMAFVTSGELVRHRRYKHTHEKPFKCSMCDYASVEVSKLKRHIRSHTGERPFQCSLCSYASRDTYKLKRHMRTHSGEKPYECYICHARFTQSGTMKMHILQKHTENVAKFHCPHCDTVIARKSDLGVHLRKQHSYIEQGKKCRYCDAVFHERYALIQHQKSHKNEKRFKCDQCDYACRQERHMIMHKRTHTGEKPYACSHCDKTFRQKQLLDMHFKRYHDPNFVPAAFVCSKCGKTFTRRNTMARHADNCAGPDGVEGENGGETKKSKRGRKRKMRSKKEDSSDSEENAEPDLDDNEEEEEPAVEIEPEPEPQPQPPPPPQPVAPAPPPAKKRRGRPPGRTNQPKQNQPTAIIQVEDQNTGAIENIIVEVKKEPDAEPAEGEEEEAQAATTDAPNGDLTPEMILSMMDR

Data set [3] has as its target T1, ΔRBRi-CTCF …. This is another data set of the same source.
Data set [4] has as its target T2, wt-CTCF (3xFLAG-Halo-wt-CTCF-6xHis). The source holds these as a separate data set.

Read-outs that look alike come from different tables or passages of the source.

B1: Core CTCF binding site duplex (dsDNA)
DNA 1: AGGACCAGCAGGGGGCGCA
DNA 2: TGCGCCCCCTGCTGGTCCT
With B1, the binding result in data set [1] and in data set [2] was “binds” throughout.

B2: Mutated core CTCF binding site duplex (dsDNA)
DNA 1: AGGATTCTAATTTCGATCA
DNA 2: TGATCGAAATTAGAATCCT
As for B2, the binding result in data set [3] and in data set [4] was “no binding” each time.
